Reference: article PMC10540216, “Activity Guided Azide-methyllysine Photo-trapping for Substrate Profiling of Lysine Demethylases” (Journal of the American Chemical Society, 2023)

B1: K2C1B_HUMAN (protein, UniProt Q7Z794 1-578, looked up)
Keratin, type II cytoskeletal …: MSHQFSSQSAFSSMSRRVYSTSSSAGSGGGSPAVGSVCYARGRCGGGGYGIHGRGFGSRSLYNLGGSRSISINLMGRSTSGFCQGGGVGGFGGGRGFGVGSTGAGGFGGGGFGGAGFGTSNFGLGGFGPYCPPGGIQEVTINQSLLEPLHLEVDPEIQRIKTQEREQIMVLNNKFASFIDKVRFLEQQNQVLQTKWELLQQVNTSTGTNNLEPLLENYIGDLRRQVDLLSAEQMRQNAEVRSMQDVVEDYKSKYEDEINKRTGSENDFVVLKKDVDAAYVSKVDLESRVDTLTGEVNFLKYLFLTELSQVQTHISDTNVILSMDNNRSLDLDSIIDAVRTQYELIAQRSKDEAEALYQTKYQELQITAGRHGDDLKNSKMEIAELNRTVQRLQAEISNVKKQIEQMQSLISDAEERGEQALQDAWQKLQDLEEALQQSKEELARLLRDYQAMLGVKLSLDVEIATYRQLLEGEESRMSGELQSHVSISVQNSQVSVNGGAGGGGSYGSGGYGGGSGGGYGGGRSYRGGGARGRSGGGYGSGCGGGGGSYGGSGRSGRGSSRVQIIQTSTNTSHRRILE
B2: CLPB_HUMAN (protein, UniProt Q9H078 37-707, looked up)
Mitochondrial disaggregase: VTTGSLGEPQWLRVATGGRPGTSPALFSGRGAATGGRQGGRFDTKCLAAATWGRLPGPEETLPGQDSWNGVPSRAGLGMCALAAALVVHCYSKSPSNKDAALLEAARANNMQEVSRLLSEGADVNAKHRLGWTALMVAAINRNNSVVQVLLAAGADPNLGDDFSSVYKTAKEQGIHSLEDGGQDGASRHITNQWTSALEFRRWLGLPAGVLITREDDFNNRLNNRASFKGCTALHYAVLADDYRTVKELLDGGANPLQRNEMGHTPLDYAREGEVMKLLRTSEAKYQEKQRKREAEERRRFPLEQRLKEHIIGQESAIATVGAAIRRKENGWYDEEHPLVFLFLGSSGIGKTELAKQTAKYMHKDAKKGFIRLDMSEFQERHEVAKFIGSPPGYVGHEEGGQLTKKLKQCPNAVVLFDEVDKAHPDVLTIMLQLFDEGRLTDGKGKTIDCKDAIFIMTSNVASDEIAQHALQLRQEALEMSRNRIAENLGDVQISDKITISKNFKENVIRPILKAHFRRDEFLGRINEIVYFLPFCHSELIQLVNKELNFWAKRAKQRHNITLLWDREVADVLVDGYNVHYGARSIKHEVERRVVNQLAAAYEQDLLPGGCTLRITVEDSDKQLLKSPELPSPQAEKRLPKLRLEIIDKDSKTRRLDIRAPLHPEKVCNTI
B3: PSPC1_HUMAN (protein, UniProt Q8WXF1 1-523, looked up)
Paraspeckle component 1: MMLRGNLKQVRIEKNPARLRALESAVGESEPAAAAAMALALAGEPAPPAPAPPEDHPDEEMGFTIDIKSFLKPGEKTYTQRCRLFVGNLPTDITEEDFKRLFERYGEPSEVFINRDRGFGFIRLESRTLAEIAKAELDGTILKSRPLRIRFATHGAALTVKNLSPVVSNELLEQAFSQFGPVEKAVVVVDDRGRATGKGFVEFAAKPPARKALERCGDGAFLLTTTPRPVIVEPMEQFDDEDGLPEKLMQKTQQYHKEREQPPRFAQPGTFEFEYASRWKALDEMEKQQREQVDRNIREAKEKLEAEMEAARHEHQLMLMRQDLMRRQEELRRLEELRNQELQKRKQIQLRHEEEHRRREEEMIRHREQEELRRQQEGFKPNYMENREQEMRMGDMGPRGAINMGDAFSPAPAGNQGPPPMMGMNMNNRATIPGPPMGPGPAMGPEGAANMGTPMMPDNGAVHNDRFPQGPPSQMGSPMGSRTGSETPQAPMSGVGPVSGGPGGFGRGSQGGNFEGPNKRRRY
B4: SNW1_HUMAN (protein, UniProt Q13573 2-536, looked up)
SNW domain-containing protein …: ALTSFLPAPTQLSQDQLEAEEKARSQRSRQTSLVSSRREPPPYGYRKGWIPRLLEDFGDGGAFPEIHVAQYPLDMGRKKKMSNALAIQVDSEGKIKYDAIARQGQSKDKVIYSKYTDLVPKEVMNADDPDLQRPDEEAIKEITEKTRVALEKSVSQKVAAAMPVRAADKLAPAQYIRYTPSQQGVAFNSGAKQRVIRMVEMQKDPMEPPRFKINKKIPRGPPSPPAPVMHSPSRKMTVKEQQEWKIPPCISNWKNAKGYTIPLDKRLAADGRGLQTVHINENFAKLAEALYIADRKAREAVEMRAQVERKMAQKEKEKHEEKLREMAQKARERRAGIKTHVEKEDGEARERDEIRHDRRKERQHDRNLSRAAPDKRSKLQRNENRDISEVIALGVPNPRTSNEVQYDQRLFNQSKGMDSGFAGGEDEIYNVYDQAWRGGKDMAQSIYRPSKNLDKDMYGDDLEARIKTNRFVPDKEFSGSDRRQRGREGPVQFEEDPFGLDKFLEEAKQHGGSKRPSDSSRPKEHEHEGKKRRKE

Tested on: KDM4A-I71AzF
Assay: CASI: photo-crosslinking with HEK293T cell extracts, StrepTactin enrichment and LC-MS/MS proteomics;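 further: lysates from HEK293T cells pretreated with a KDM4 inhibitor to raise proteome methylation, affinity-purified after ±UV, gel-resolved, trypsin-digested, with exclusive unique peptides per protein averaged per condition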
Type: binding, human
Details: sheet "Final results but with 0.01"

Going from B1 to B2, the “Fold change (+UV/-UV)” value falls from 4 to 2.

Compared with B3, B4 is higher in “Fold change (+UV/-UV)” value: 1.667 for the first, 2 for the second.
